Reference: article PMC3545708

Biological target: isolated HC fragment of BoNT/A (receptor-binding domain), wild type (Clostridium botulinum)
Experiment: ITC

## full-length NTNHA-A1 (non-toxic non-hemagglutinin protein) (from UniProt Q45914 1-1193) (natural protein)
  Kd: 48.3 nM
